The values below come from article PMC4198062.

In this experiment the target is c-Jun (UniProt P05412). The experiment in a line: single molecule FRET, surface-immobilized PAGE4. To be noted: reference: PAGE4 P102C expressed alone (nonphosphorylated); sites T51.

Regarding “PAGE4 (from UniProt O60829) PAGE4 P102C coexpressed with GST-HIPK1 in E. coli”, the “other: percent of molecules shifted to low FRET with c-Jun” value is listed as “weaker; reference 70”.
